The values that follow are results of earlier work, collected in article PMC6525395.

In the series the target is IL-6Rα (Homo sapiens) (UniProt P08887).
Sequence of UniProt P08887 (P08887 20-355): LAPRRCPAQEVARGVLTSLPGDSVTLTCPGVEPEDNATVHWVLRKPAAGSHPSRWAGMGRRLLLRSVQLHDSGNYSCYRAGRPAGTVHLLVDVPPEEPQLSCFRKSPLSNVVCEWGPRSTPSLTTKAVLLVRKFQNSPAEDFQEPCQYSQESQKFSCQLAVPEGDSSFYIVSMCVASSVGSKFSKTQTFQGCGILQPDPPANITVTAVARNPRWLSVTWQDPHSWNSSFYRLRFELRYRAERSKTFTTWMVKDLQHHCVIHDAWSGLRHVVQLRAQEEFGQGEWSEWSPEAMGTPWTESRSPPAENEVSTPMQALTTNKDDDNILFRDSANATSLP

As for IL-6 (from UniProt P05231), the Kd is 500 pM.
